Key:
[1] = Peracetic acid production by Thermotoga maritima MSB8 perhydrolase, control by bicarbonate buffer concentration; type: biochemical; settings: 100 mM triacetin
Method: A cell extract of a transformant expressing perhydrolase from Thermotoga maritima MSB8 (KLP18/pSW207) was prepared by passing a suspension of cell paste (20 wt % wet cell weight) in 0.05 M potassium phosphate buffer (pH 7.0) containing dithiothreitol (1 mM) twice through a French press having a working pressure of 16,000 psi (˜110 MPa). The crude extract was then centrifuged at 20,000×g to remove cellular debris, producing a clarified cell extract that was assayed for total soluble protein (Bicinchoninic Acid Kit for Protein Determination, Sigma Aldrich catalog #BCA1-KT). The clarified extract was heated for 20 min at 75° C., followed immediately by cooling in an ice/water bath. The resulting mixture was centrifuged to remove precipitated protein, and the supernatant collected and assayed for total soluble protein as before. […] The supernatant was frozen in dry ice and stored at −80° C.
Reactions (2 mL total volume) containing triacetin, hydrogen peroxide and heat-treated, centrifuged cell extract supernatant (prepared as described above) were run at 25° C. using sodium bicarbonate buffer concentrations listed in Tables 9 and 10. A control reaction for each reaction condition was run to determine the concentration of peracetic acid produced by chemical perhydrolysis of triacetin by hydrogen peroxide in the absence of added extract protein. Determination of the concentration of peracetic acid in the reaction mixtures was performed according to the method described by Karst et al., supra. The peracetic acid concentrations produced in 1 min, 5 min and 30 min using either 250 mM or 100 mM hydrogen peroxide are listed in Table 9 and Table 10.

[2] = Peracetic acid production and reaction pH over time, Thermotoga maritima MSB8 perhydrolase, selection of buffer, reactant and perhydrolase concentrations; type: biochemical; settings: triacetin 100 mM
Method: Reactions (10 mL total volume) containing triacetin (100 mM), hydrogen peroxide (100 mM or 250 mM) and heat-treated, centrifuged cell extract supernatant (35 to 100 μg total heat-treated extract protein/mL, prepared as described in Example 13) prepared from an E. coli transformant expressing perhydrolase from Thermotoga maritima MSB8 (KLP18/pSW207) in sodium citrate (50 mM, pH 6.5) buffer, or in sodium bicarbonate buffer (1 mM to 5 mM, initial pH as indicated in Table 12), or in water without added buffer were run at 25° C. A control reaction for each reaction condition was run to determine the concentration of peracetic acid produced by chemical perhydrolysis of triacetin by hydrogen peroxide in the absence of added extract protein. Determination of the concentration of peracetic acid in the reaction mixtures was performed according to the method described by Karst et al., supra. The peracetic acid concentration produced at predetermined reaction times is listed in Table 11, and the corresponding reaction pH at each reaction time is listed in Table 12.

[3] = bicarbonate, 1 mM, H2O2 100 mM, total protein 75 μg/mL
[4] = bicarbonate, 1 mM, H2O2 100 mM, total protein 100 μg/mL
[5] = bicarbonate, 1 mM, H2O2 250 mM, total protein 35 μg/mL
[6] = bicarbonate, 1 mM, H2O2 250 mM, total protein 50 μg/mL
[7] = bicarbonate, 2.5 mM, H2O2 100 mM, total protein 50 μg/mL
[8] = bicarbonate, 5 mM, H2O2 100 mM, total protein 50 μg/mL
[9] = citrate, 50 mM, H2O2 100 mM, total protein 50 μg/mL
[10] = water (no buffer), H2O2 250 mM, total protein 75 μg/mL
[11] = water (no buffer), H2O2 250 mM, total protein 100 μg/mL

B1: Thermotoga maritima MSB8 perhydrolase: acetyl xylan esterase with perhydrolase activity from Thermotoga maritima MSB8 (SEQ ID NO: 16), cell extract of E. coli KLP18/pSW207 (protein, listed as Thermotoga maritima)
chain: MAFFDLPLEELKKYRPERYEEKDFDEFWEETLAESEKFPLDPVFERMESHLKTVEAYDVTFSGYRGQRIKGWLLVPKLEEEKLPCVVQYIGYNGGRGFPHDWLFWPSMGYICFVMDTRGQGSGWLKGDTPDYPEGPVDPQYPGFMTRGILDPRTYYYRRVFTDAVRAVEAAASFPQVDQERIVIAGGSQGGGIALAVSALSKKAKALLCDVPFLCHFRRAVQLVDTHPYAEITNFLKTHRDKEEIVFRTLSYFDGVNFAARAKIPALFSVGLMDNICPPSTVFAAYNYYAGPKEIRIYPYNNHEGGGSFQAVEQVKFLKKLFEKG
[1]; NaHCO3 0 mM, initial pH 5.0, 1 min, 100 mM H2O2, 50 μg/mL heated extract total protein
  PAA (ppm), 1 min: 125 ppm
[1]; NaHCO3 0 mM, initial pH 5.0, 1 min, 250 mM H2O2, 50 μg/mL heated extract total protein
  PAA (ppm), 1 min: 233 ppm
[1]; NaHCO3 0 mM, initial pH 5.0, 5 min, 100 mM H2O2, 50 μg/mL heated extract total protein
  PAA (ppm), 5 min: 121 ppm
[1]; NaHCO3 0 mM, initial pH 5.0, 5 min, 250 mM H2O2, 50 μg/mL heated extract total protein
  PAA (ppm), 5 min: 290 ppm
[1]; NaHCO3 0 mM, initial pH 5.0, 30 min, 100 mM H2O2, 50 μg/mL heated extract total protein
  PAA (ppm), 30 min: 105 ppm
[1]; NaHCO3 0 mM, initial pH 5.0, 30 min, 250 mM H2O2, 50 μg/mL heated extract total protein
  PAA (ppm), 30 min: 289 ppm
[1]; NaHCO3 1.0 mM, initial pH 6.0, 1 min, 100 mM H2O2, 50 μg/mL heated extract total protein
  PAA (ppm), 1 min: 238 ppm
[1]; NaHCO3 1.0 mM, initial pH 6.0, 1 min, 250 mM H2O2, 50 μg/mL heated extract total protein
  PAA (ppm), 1 min: 690 ppm
[1]; NaHCO3 1.0 mM, initial pH 6.0, 5 min, 100 mM H2O2, 50 μg/mL heated extract total protein
  PAA (ppm), 5 min: 388 ppm
[1]; NaHCO3 1.0 mM, initial pH 6.0, 5 min, 250 mM H2O2, 50 μg/mL heated extract total protein
  PAA (ppm), 5 min: 980 ppm
[1]; NaHCO3 1.0 mM, initial pH 6.0, 30 min, 100 mM H2O2, 50 μg/mL heated extract total protein
  PAA (ppm), 30 min: 361 ppm
[1]; NaHCO3 1.0 mM, initial pH 6.0, 30 min, 250 mM H2O2, 50 μg/mL heated extract total protein
  PAA (ppm), 30 min: 981 ppm
[1]; NaHCO3 2.5 mM, initial pH 6.5, 1 min, 100 mM H2O2, 50 μg/mL heated extract total protein
  PAA (ppm), 1 min: 319 ppm
[1]; NaHCO3 2.5 mM, initial pH 6.5, 1 min, 250 mM H2O2, 50 μg/mL heated extract total protein
  PAA (ppm), 1 min: 817 ppm
[1]; NaHCO3 2.5 mM, initial pH 6.5, 5 min, 100 mM H2O2, 50 μg/mL heated extract total protein
  PAA (ppm), 5 min: 755 ppm
[1]; NaHCO3 2.5 mM, initial pH 6.5, 5 min, 250 mM H2O2, 50 μg/mL heated extract total protein
  PAA (ppm), 5 min: 1758 ppm
[1]; NaHCO3 2.5 mM, initial pH 6.5, 30 min, 100 mM H2O2, 50 μg/mL heated extract total protein
  PAA (ppm), 30 min: 710 ppm
[1]; NaHCO3 2.5 mM, initial pH 6.5, 30 min, 250 mM H2O2, 50 μg/mL heated extract total protein
  PAA (ppm), 30 min: 1748 ppm
[1]; NaHCO3 5.0 mM, initial pH 6.5, 1 min, 100 mM H2O2, 50 μg/mL heated extract total protein
  PAA (ppm), 1 min: 330 ppm
[1]; NaHCO3 5.0 mM, initial pH 6.5, 1 min, 250 mM H2O2, 50 μg/mL heated extract total protein
  PAA (ppm), 1 min: 735 ppm
[1]; NaHCO3 5.0 mM, initial pH 6.5, 5 min, 100 mM H2O2, 50 μg/mL heated extract total protein
  PAA (ppm), 5 min: 972 ppm
[1]; NaHCO3 5.0 mM, initial pH 6.5, 5 min, 250 mM H2O2, 50 μg/mL heated extract total protein
  PAA (ppm), 5 min: 1825 ppm
[1]; NaHCO3 5.0 mM, initial pH 6.5, 30 min, 100 mM H2O2, 50 μg/mL heated extract total protein
  PAA (ppm), 30 min: 1323 ppm
[1]; NaHCO3 5.0 mM, initial pH 6.5, 30 min, 250 mM H2O2, 50 μg/mL heated extract total protein
  PAA (ppm), 30 min: 2222 ppm
[1]; NaHCO3 10 mM, initial pH 7.0, 1 min, 250 mM H2O2, 50 μg/mL heated extract total protein
  PAA (ppm), 1 min: 804 ppm
[1]; NaHCO3 10 mM, initial pH 7.0, 5 min, 250 mM H2O2, 50 μg/mL heated extract total protein
  PAA (ppm), 5 min: 1951 ppm
[1]; NaHCO3 10 mM, initial pH 7.0, 30 min, 250 mM H2O2, 50 μg/mL heated extract total protein
  PAA (ppm), 30 min: 2698 ppm
[1]; NaHCO3 10 mM, initial pH 8.1, 1 min, 100 mM H2O2, 50 μg/mL heated extract total protein
  PAA (ppm), 1 min: 407 ppm
[1]; NaHCO3 10 mM, initial pH 8.1, 5 min, 100 mM H2O2, 50 μg/mL heated extract total protein
  PAA (ppm), 5 min: 1075 ppm
[1]; NaHCO3 10 mM, initial pH 8.1, 30 min, 100 mM H2O2, 50 μg/mL heated extract total protein
  PAA (ppm), 30 min: 1763 ppm
[1]; NaHCO3 25 mM, initial pH 8.1, 1 min, 100 mM H2O2, 50 μg/mL heated extract total protein
  PAA (ppm), 1 min: 465 ppm
[1]; NaHCO3 25 mM, initial pH 8.1, 1 min, 250 mM H2O2, 50 μg/mL heated extract total protein
  PAA (ppm), 1 min: 848 ppm
[1]; NaHCO3 25 mM, initial pH 8.1, 5 min, 100 mM H2O2, 50 μg/mL heated extract total protein
  PAA (ppm), 5 min: 1369 ppm
[1]; NaHCO3 25 mM, initial pH 8.1, 5 min, 250 mM H2O2, 50 μg/mL heated extract total protein
  PAA (ppm), 5 min: 2342 ppm
[1]; NaHCO3 25 mM, initial pH 8.1, 30 min, 100 mM H2O2, 50 μg/mL heated extract total protein
  PAA (ppm), 30 min: 2217 ppm
[1]; NaHCO3 25 mM, initial pH 8.1, 30 min, 250 mM H2O2, 50 μg/mL heated extract total protein
  PAA (ppm), 30 min: 3251 ppm
[2]; [3]
  PAA (ppm), 1 min: 434 ppm
  PAA (ppm), 5 min: 494 ppm
  PAA (ppm), 30 min: 608 ppm
  PAA (ppm), 2 h: 673 ppm
  PAA (ppm), 18 h: 576 ppm
[2]; [4]
  PAA (ppm), 1 min: 449 ppm
  PAA (ppm), 5 min: 667 ppm
  PAA (ppm), 30 min: 643 ppm
  PAA (ppm), 2 h: 703 ppm
  PAA (ppm), 18 h: 613 ppm
[2]; [5]
  PAA (ppm), 1 min: 467 ppm
  PAA (ppm), 5 min: 1047 ppm
  PAA (ppm), 30 min: 1041 ppm
  PAA (ppm), 2 h: 1014 ppm
  PAA (ppm), 18 h: 917 ppm
[2]; [6]
  PAA (ppm), 1 min: 624 ppm
  PAA (ppm), 5 min: 1060 ppm
  PAA (ppm), 30 min: 1090 ppm
  PAA (ppm), 2 h: 1063 ppm
  PAA (ppm), 18 h: 1021 ppm
[2]; [7]
  PAA (ppm), 1 min: 256 ppm
  PAA (ppm), 5 min: 722 ppm
  PAA (ppm), 30 min: 976 ppm
  PAA (ppm), 2 h: 887 ppm
  PAA (ppm), 18 h: 855 ppm
[2]; [8]
  PAA (ppm), 1 min: 410 ppm
  PAA (ppm), 5 min: 1088 ppm
  PAA (ppm), 30 min: 1496 ppm
  PAA (ppm), 2 h: 1423 ppm
  PAA (ppm), 18 h: 1419 ppm
[2]; [9]
  PAA (ppm), 1 min: 409 ppm
  PAA (ppm), 5 min: 892 ppm
  PAA (ppm), 30 min: 2001 ppm
  PAA (ppm), 2 h: 2254 ppm
  PAA (ppm), 18 h: 1937 ppm
[2]; [10]
  PAA (ppm), 1 min: 512 ppm
  PAA (ppm), 5 min: 535 ppm
  PAA (ppm), 30 min: 533 ppm
  PAA (ppm), 2 h: 472 ppm
  PAA (ppm), 18 h: 448 ppm
[2]; [11]
  PAA (ppm), 1 min: 576 ppm
  PAA (ppm), 5 min: 668 ppm
  PAA (ppm), 30 min: 654 ppm
  PAA (ppm), 2 h: 618 ppm
  PAA (ppm), 18 h: 543 ppm

Source: US8389575B2, “Control of enzymatic peracid generation” (E.I. du Pont de Nemours and Company, priority 2008, dated 2013)
